Data: US8729028B2, “Noggin-derived peptide and use thereof” (Caregen Co., Ltd., priority 2009, dated 2014)
One block for each molecule: values may come before it. Where no end group is shown, it is not given here. The star is where a group is joined. Biotin = O=C1N[C@H]2[C@H](CS[C@H]2CCCCC(=O)*)N1

Experiments:
HaCaT keratinocytes = experiment: SRB colorimetric assay of cellular growth, keratinocytes; type: cell-based; settings: peptide 100 ng/mL, 72 hours, SRB absorbance 590 nm and microscopy (FIGS. 2a, 3)
Experimental: (§1) To analyze the growth factor-like effect of the peptide synthesized in Synthesis Example, sulforhodamine B (SRB) calorimetric assay was carried out using HaCaT keratinocytes (Korean Cell Line Bank) and NIH3T3 fibroblasts (Korean Cell Line Bank) according to Rizzino et al.'s method (Rizzino et al. Cancer Res. 48: 4266 (1988)).
(§2) HaCaT keratinocytes and NIH3T3 fibroblasts were cultured respectively in a 250-mL tissue culture flask in Eagle's minimal essential media (EMEM; Gibco, U.S.A.) containing 10% fetal bovine serum (FBS; Sigma). The cultured cells were treated with 0.25% trypsin solution to detach the cells from the bottom of the culture flask and centrifuged to collect cell pellets. They were resuspended in FBS-free EMEM and added to each well of a 96-well tissue culture plate, with 4×10^3 cells per well. The cells were cultured under 7% CO2 for 24 hours at 37° C. 24 hours later, the medium was changed with fresh, FBS-containing medium and the cells were incubated for 72 hours under the same conditions as described above with blank sample as reference or with the sterilized synthetic peptide (100 ng/mL) dissolved in water and 10% DMSO. After removing the supernatant, the cells were washed once with phosphate buffered saline (PBS). […] In addition, absorbance was measured at 590 nm to analyze cell proliferation.

NIH3T3 fibroblasts = experiment: SRB colorimetric assay of cellular growth, fibroblasts; type: cell-based; settings: NIH3T3, peptide 100 ng/mL, 72 hours, SRB absorbance 590 nm and microscopy (FIGS. 2b, 3)
Experimental: as §1, §2

HaCaT cells = experiment: Laminin and hyaluronic acid production (ELISA kits); type: cell-based; settings: 72 hours after treatment
Experimental: HaCaT cells cultured for 48 hours were treated with the peptide synthesized in Synthesis Example. 72 hours later, the level of laminin and hyaluronic acid was measured as an indicator to show the improvement in skin wrinkles. The measurement was made using a laminin ELISA kit (Takara, Japan) and a hyaluronic acid ELISA kit (Takara, Japan).

BMP-4 = molecular target: T1, BMP-4 (Homo sapiens, UniProt P12644); experiment: Melanin production in α-MSH-induced, BMP-4-treated melanocytes (antagonistic activity against BMP-4); type: cell-based; settings: for melanin production: C57BL/6 mouse melanocytes, 200 μg/mL α-MSH, 1 μg/mL BMP-4, cultured 3 days, observed with naked eyes (FIG. 5)
T1 construct: purchased R&D Systems, Inc., USA
T1 sequence (P12644 293-408): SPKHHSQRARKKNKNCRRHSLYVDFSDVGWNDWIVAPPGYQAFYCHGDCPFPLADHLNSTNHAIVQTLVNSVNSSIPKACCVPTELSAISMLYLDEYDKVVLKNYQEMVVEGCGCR
Experimental: In order to investigate the antagonistic activity of the peptide synthesized in Synthesis Example against the growth factor BMP-4, C57BL/6 mouse melanocytes (Jung Ang Lab. Animal, Korea) were cultured and melanin production was induced with α-melanocyte stimulating hormone (α-MSH; Sigma). Then, after treating with BMP-4 (R&D Systems, Inc., USA) and then immediately with the synthesized peptide at different concentrations, it was checked whether the melanin production inhibited by BMP was activated again. The mouse melanocytes were cultured using DMEM (Sigma) containing 10% FBS (Sigma) at 37° C. under 5% CO2. After culturing the cells on a 24-well plate at 1×10^5 cells/well and confirming attachment of the cells, the cells were treated only with a solvent (control), with 200 μg/mL α-MSH (positive control) or with 1 μg/mL BMP-4. Then, the cells were treated with the peptide of SEQ ID NO: 1. After adding the test substance to each dish, the cells were cultured for 3 days. The test substance had been prepared by dissolving the ingredients in a solvent and diluting to the test concentration using a 5:3:2 mixture solvent of propylene glycol:ethanol:purified water. After removing the medium by centrifugation, the production of melanin could be observed with naked eyes.
For more accurate measurement, cells were washed with PBS and lysed with 1 N sodium hydroxide. Then, after measuring absorbance at 400 nm, inhibition of melanin production was calculated according to the Dooley's method (Dooley, T. P. et al., Skin Pharmacol. 7: 188-200 (1994)), and the result was shown in FIG. 6. The result shown in FIG. 6 coincides with that of FIG. 5.

rh-BMP4 protein [1] = molecular target: T2, rh-BMP4 protein (Homo sapiens, UniProt P12644); experiment: Biacore binding of peptide to immobilised BMP4; settings: CM5 sensor chip, 6000 RU rh-BMP4, peptide 4-1000 μg/mL (FIG. 7)
T2 construct: purchased R&D Systems, Inc., USA
T2 sequence (P12644 293-408): T1 sequence (P12644 293-408)
Experimental: (§3) In order to investigate whether the peptide synthesized according to the present disclosure binds to the BMP protein, the Biacore instrument allowing the detection of binding between drugs and receptors was used.
(§4) 6000 response units (RU) of rh-BMP4 protein (R&D Systems, Inc., USA) was fixed to a commercially available CM5 sensor chip (Biacore, Sweden) by amination. Then, HBS-EP buffer (Biacore, Sweden) was flown at a rate of 5 μL/min to activate the BMP4 protein on the CM5 sensor chip. After optimization for reaction, the synthesized peptide was flown at different concentrations (1000 μg/mL, 500 μg/mL, 250 μg/mL, 125 μg/mL, 62.5 μg/mL, 31.3 μg/mL, 15.6 μg/mL, 7.8 μg/mL, 4 μg/mL). The binding between BMP4 and the synthetic peptide could be identified from the increase in RU value.

rh-BMP4 protein [2] = molecular target: T2, rh-BMP4 protein; experiment: Streptavidin chromatography with SDS-PAGE and western blot (immunobinding to BMP4); type: binding; settings: streptavidin column, elution with NaCl, western blot with anti-BMP4 antibody (FIG. 8b)
Experimental: The N-terminus of the peptide prepared in Synthesis Example was modified with biotin (Sigma, USA). For streptavidin chromatography, the biotinylated peptide was loaded in a column packed with streptavidin-attached resin and equilibrated with 20 mM sodium phosphate buffer. Then, after flowing rh-BMP4 protein (R&D Systems, Inc., USA) through the column, 200 mM sodium phosphate buffer was flown to flush unbound protein and the protein bound to the biotinylated peptide was fractionated by eluting with 0.2 M NaCl. The eluate was analyzed by SDS-PAGE (see FIG. 8a) and it was confirmed whether the BMP4 protein binds with the biotinylated peptide by western blotting using anti-BMP4 antibody (Santa Cruz, USA) (see FIG. 8b).

[3] = Thermal stability at 37° C. in phosphate buffer, HPLC quantification; type: physicochemical; settings: 0.11 mg/mL phosphate buffer, days 0-70, compared with reference Noggin (FIG. 9)
Experimental: The peptide prepared in Synthesis Example and a reference growth factor (Noggin, FGF-10) purchased from NIBSC (UK) were prepared to 0.11 mg/mL phosphate buffer solutions. 1 mL of each prepared solution was put in a glass vial and kept at 37° C. The solution was sampled on days 0, 5, 10, 20, 30, 40 and 70. After centrifugation to remove any denatured peptide or protein, the supernatant was subjected to HPLC for quantification (FIG. 9).

C57BL/6 mouse = experiment: Hair growth on depilated back skin of mouse; type: in vivo; settings: C57BL/6 mouse back, 10 μL of 1 μg/μL on days 0, 2 and 4, observed for 10 days, against PBS (FIG. 10)
Experimental: In order to investigate the hair growth promoting effect of the peptide synthesized in Synthesis Example, hair of the back of a mouse (C57BL/6, Jung Ang Lab. Animal, Korea) was partially removed using hair removal cream. 10 μL of the peptide of SEQ ID NO: 1 (1 μg/μL) was administered or applied on the upper portion of the back of the mouse, and 10 μL of PBS was administered or applied on the lower portion of the back of the mouse, on days 0, 2 and 4.

[4] = molecular target: T3, rh-BMP4 protein (R&D Systems, Inc., USA) (human, UniProt P12644 293-408); experiment: SPR (Biacore), rh-BMP4 fixed on a CM5 chip, peptide flown at 4-1000 µg/mL
T3 construct: Bought protein; also called BMP protein
T3 sequence (looked up): T1 sequence (P12644 293-408)
Experimental: as §3, §4

binding to BMP4 (increase in RU value) (rh-BMP4 protein [1]): very strong binding ability
binding of BMP4 protein to peptide (rh-BMP4 protein [2]): very strongly binds
Molecule: Glu-Leu-Ile-Glu-His (SEQ ID NO:2)-Linker-Arg-Pro-Ala-Asp (SEQ ID NO:3) peptide (linker=Gly-Gly-Gly) (ELIEHGGGRPAD; listed as Homo sapiens) [SEQ ID NO: 1, noggin-derived peptide]
growth of keratinocytes (HaCaT keratinocytes): promote the growth
growth of fibroblasts (NIH3T3 fibroblasts): promote the growth
production of hyaluronic acid (HaCaT cells; hyaluronic acid ELISA kit (FIG. 4b)): increases the production
production of laminin (HaCaT cells; laminin ELISA kit (FIG. 4a)): increases the production
melanin production (BMP-4): melanin production comparable to that of the α-MSH-treated group
BMP-4 activity (BMP-4; inferred from restored melanin production in BMP-4-treated mouse melanocytes (FIG. 5)): appropriately inhibits the BMP-4 activity
thermal stability [3]: much superior thermal stability to the existing noggin peptide
hair growth (C57BL/6 mouse): effective in promoting hair growth

binding of BMP4 protein to peptide (rh-BMP4 protein [2]): bound
Molecule: biotinylated peptide: The N-terminus of the peptide prepared in Synthesis Example was modified with biotin (Biotin-ELIEHGGGRPAD)

melanin production (BMP-4): abrupt increase in melanin production
Molecule: α-melanocyte stimulating hormone [α-MSH, reference compound]

binding result [4]: binds
B1: Glu-Leu-Ile-Glu-His (SEQ ID NO:2)-Linker-Arg-Pro-Ala-Asp (SEQ ID NO:3) peptide (linker=Gly-Gly-Gly) (SEQ ID NO:1) (peptide)
peptide: ELIEHGGGRPAD
notes: Made by solid-phase synthesis; The synthesis text describes an acetylation step with acetic anhydride after the last Fmoc removal; However, the printed theoretical weight of 1250.35 matches the peptide without an acetyl group, so no N-terminal acetyl is entered; also called synthesized peptide
